Reference: PMC10746543 (2023)

Legend:
[1] = target: T1, _(Alexa488)DDB1 (human, UniProt Q16531 1-1140, SpyTag joined to SpyCatcher (S50C) labelled with Alexa488–C5–maleimide); test: FRET; compound Z12 titration
[2] = target: T1, _(Alexa488)DDB1; test: FRET; compound Z7 titration
[3] = target: T1, _(Alexa488)DDB1; test: FRET; compound dCeMM3 titration
[4] = target: T1, _(Alexa488)DDB1; test: FRET; compound Z11 titration
[5] = target: T1, _(Alexa488)DDB1; test: FRET; compound HQ461 titration

T1 sequence (Q16531 whole entry): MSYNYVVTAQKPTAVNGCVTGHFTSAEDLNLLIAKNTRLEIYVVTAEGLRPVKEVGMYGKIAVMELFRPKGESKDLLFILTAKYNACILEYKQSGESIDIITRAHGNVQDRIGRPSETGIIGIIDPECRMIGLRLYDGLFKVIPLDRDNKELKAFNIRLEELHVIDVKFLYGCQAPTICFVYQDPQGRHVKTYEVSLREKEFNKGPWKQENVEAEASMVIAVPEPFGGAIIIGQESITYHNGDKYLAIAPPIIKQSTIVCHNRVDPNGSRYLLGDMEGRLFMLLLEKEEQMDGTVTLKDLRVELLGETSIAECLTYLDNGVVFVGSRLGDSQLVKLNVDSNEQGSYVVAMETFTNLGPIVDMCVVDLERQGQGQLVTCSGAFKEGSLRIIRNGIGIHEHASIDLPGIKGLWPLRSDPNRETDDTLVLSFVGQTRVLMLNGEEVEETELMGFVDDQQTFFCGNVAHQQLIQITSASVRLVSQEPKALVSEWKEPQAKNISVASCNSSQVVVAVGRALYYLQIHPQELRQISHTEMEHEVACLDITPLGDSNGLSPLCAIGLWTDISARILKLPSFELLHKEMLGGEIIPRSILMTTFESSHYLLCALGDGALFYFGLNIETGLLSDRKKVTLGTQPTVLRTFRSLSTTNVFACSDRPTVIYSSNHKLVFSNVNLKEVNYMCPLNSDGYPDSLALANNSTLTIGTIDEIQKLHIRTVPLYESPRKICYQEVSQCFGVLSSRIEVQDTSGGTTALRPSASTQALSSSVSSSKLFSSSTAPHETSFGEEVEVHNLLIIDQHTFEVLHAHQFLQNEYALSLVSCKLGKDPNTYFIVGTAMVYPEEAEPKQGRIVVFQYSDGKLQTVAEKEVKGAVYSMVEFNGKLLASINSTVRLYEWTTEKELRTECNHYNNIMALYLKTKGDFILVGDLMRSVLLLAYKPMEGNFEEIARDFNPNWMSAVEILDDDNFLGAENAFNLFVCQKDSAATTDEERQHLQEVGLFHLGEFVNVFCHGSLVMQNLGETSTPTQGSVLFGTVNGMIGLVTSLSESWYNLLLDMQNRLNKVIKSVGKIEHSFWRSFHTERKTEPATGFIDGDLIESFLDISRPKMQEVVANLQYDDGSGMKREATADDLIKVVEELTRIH

EC50 [1]: 833 nM | EC50 [2]: 303 nM | EC50 [3]: 263 nM | EC50 [4]: 178 nM | EC50 [5]: 43 nM
B1: CDK12–cyclin K_(biotin) (complex)
chain 1: not shown
chain 2: MKENKENSSPSVTSANLDHTKPCWYWDKKDLAHTPSQLEGLDPATEARYRREGARFIFDVGTRLGLHYDTLATGIIYFHRFYMFHSFKQFPRYVTGACCLFLAGKVEETPKKCKDIIKTARSLLNDVQFGQFGDDPKEEVMVLERILLQTIKFDLQVEHPYQFLLKYAKQLKGDKNKIQKLVQMAWTFVNDSLCTTLSLQWEPEIIAVAVMYLAGRLCKFEIQEWTSKPMYRRWWEQFVQDVPVDVLEDICHQILDLYSQGKQQMPH
modifications: biotin on the Avi tag (enzymatic, BirA)
